In the RNAGym collection of RNA variant scans (doi:10.7554/elife.90254):

B1: LINE1-mini (parent)
chain: GGCAGAGCUCAACACAGCGUGGCAAAGUGGCUGUGGCUAGACUGCC

Variants of: B1
Assay: self-cleavage, relative activity (ratio to wild type); higher = more cleavage; in vitro, sequencing; the parent is a self-cleaving ribozyme

Row | Variant | self-cleavage
1 | U28A U43G | 0.03
2 | U28A U43C | 0.09
3 | U28A U43A | 0.11
4 | U28A U38C | 0.38
5 | U28A U38A | 0.38
6 | U28A U38G | 0.01
7 | G27U | 0.83
8 | G27U G35A | 0.18
9 | G27U G35U | 0.24
10 | G27U G35C | 0.09
11 | G27U G29U | 1.03
12 | G27U G29C | 0.27
13 | G27U G29A | 0.96
14 | U28A A41C | 0.03
15 | U28A A41G | 0.3
16 | U28A A41U | 0.42
17 | U28A C46A | 1.23
18 | U28A C46U | 0.66
19 | U28A C46G | 0.87
20 | G27U C31G | 0.21
21 | G27U C31U | 0.33
22 | G27U C31A | 0.46
23 | G27U A39C | 0.22
24 | G27U A39U | 0.56

Row | Variant | self-cleavage
25 | G27U A39G | 0.22
26 | U28A U34A | 0.44
27 | U28A U34G | 0.11
28 | U28A U34C | 0.07
29 | G27C U38A | 0.34
30 | G27C U38G | 0.02
31 | G27C U38C | 0.29
32 | U28C G33C | 0.06
33 | U28C G33U | 0.08
34 | U28C G33A | 0.14
35 | U28C G35C | 0.13
36 | U28C G35U | 0.09
37 | U28C G35A | 0.21
38 | G27U U34A | 0.23
39 | G27U U34C | 0.19
40 | G27U U34G | 0.26
41 | U28A U32G | 0.3
42 | U28A U32C | 0.18
43 | U28A G40A | 0.1
44 | U28A G40C | 0.09
45 | U28A G40U | 0.12
46 | G27C U32C | 0.12
47 | G27C U32G | 0.08
48 | G27C U32A | 0.09

Row | Variant | self-cleavage
49 | U28A G36A | 0.14
50 | U28A G36U | 0.08
51 | U28A G36C | 0.06
52 | G27U U28C | 1.23
53 | G27U U28A | 0.34
54 | G27U U28G | 1.08
55 | G27U C37A | 0.03
56 | G27U C37U | 0.07
57 | G27U C37G | 0.03
58 | U28C C42A | 0.16
59 | U28C C42G | 0.13
60 | U28C C42U | 0.15
61 | U28A C45U | 1.28
62 | U28A C45A | 0.29
63 | U28A C45G | 0.24
64 | U28A G35A | 0.15
65 | U28A G35U | 0.18
66 | U28A G35C | 0.08
67 | G27U U38G | 0.03
68 | G27U U38C | 0.58
69 | G27U U38A | 0.39
70 | G27U C46G | 0.76
71 | G27U C46U | 1.05
72 | G27U C46A | 1.11

Row | Variant | self-cleavage
73 | U28C A41C | 0.03
74 | U28C A41U | 0.45
75 | U28C A41G | 0.43
76 | G27U A41U | 0.49
77 | G27U A41C | 0.06
78 | G27U A41G | 0.27
79 | G27U U43A | 0.17
80 | G27U U43G | 0.11
81 | G27U U43C | 0.1
82 | G27C G40C | 0.07
83 | G27C G40U | 0.12
84 | G27C G40A | 0.12
85 | G27C G44C | 0.14
86 | G27C G44U | 0.38
87 | G27C G44A | 0.47
88 | U28A C31U | 0.54
89 | U28A C31A | 0.83
90 | U28A C31G | 0.13
91 | U28A A39U | 0.39
92 | U28A A39C | 0.15
93 | U28A A39G | 0.05
94 | G27C U43C | 0.07
95 | G27C U43A | 0.09
96 | G27U U32G | 0.16

Row | Variant | self-cleavage
97 | G27U U32A | 0.07
98 | G27U U32C | 0.19
99 | U28A G29U | 0.41
100 | U28A G29A | 0.6
101 | U28A G29C | 0.16
102 | G27C U34A | 0.2
103 | G27C U34G | 0.2
104 | G27C U34C | 0.08
105 | G27U G30A | 1.86
106 | G27U G30C | 1.79
107 | G27U G30U | 1.53
108 | G27C G36U | 0.05
109 | G27U C45G | 0.37
110 | G27U C45U | 1.6
111 | G27U C45A | 0.92
112 | U28A G44C | 0.62
113 | U28A G44A | 0.23
114 | U28A G44U | 0.33
115 | U28A G30U | 0.77
116 | U28A G30A | 1.65
117 | U28A G30C | 0.62
118 | U28C C46A | 0.66
119 | U28C C46U | 0.51
120 | U28C C46G | 1.68

Row | Variant | self-cleavage
121 | G27U G44A | 0.43
122 | G27U G44U | 0.37
123 | G27U G44C | 0.82
124 | U28C C37U | 0.06
125 | U28C C37A | 0.03
126 | U28C C37G | 0.01
127 | U28A | 0.71
128 | U28C | 0.73
129 | U28A C42A | 0.12
130 | U28A C42U | 0.22
131 | U28A C42G | 0.02
132 | G27C U28G | 0.51
133 | G27C U28C | 1.12
134 | G27C U28A | 0.54
135 | U28A G33C | 0.03
136 | U28A G33A | 0.06
137 | U28A G33U | 0.16
138 | U28C C31A | 0.87
139 | U28C C31G | 0.16
140 | U28C C31U | 0.45
141 | U28C G30A | 0.96
142 | U28C G30U | 0.7
143 | U28C G30C | 0.64
144 | G27U G33U | 0.07

Row | Variant | self-cleavage
145 | G27U G33C | 0.07
146 | G27U G33A | 0.09
147 | U28C C45U | 1.88
148 | U28C C45A | 1.7
149 | U28C C45G | 0.44
150 | U28C G29U | 0.77
151 | U28C G29A | 0.37
152 | U28C G29C | 1.2
153 | G27U C42U | 0.2
154 | G27U C42G | 0.04
155 | G27U C42A | 0.17
156 | U28C A39C | 0.1
157 | U28C A39G | 0.09
158 | U28C A39U | 1
159 | G27U G40U | 0.13
160 | G27U G40C | 0.16
161 | G27U G40A | 0.13
162 | G27U G36A | 0.4
163 | G27U G36C | 0.1
164 | G27U G36U | 0.04
165 | U28A C37U | 0.04
166 | U28A C37G | 0.04
167 | U28A C37A | 0.04
